From PMC9692295

Columns and labels:
[1] = biological target: Gaboon viper virus 1 (GaVV-1) phosphoprotein oligomerisation domain (POD), residues 67 to 178 (Gaboon viper virus 1 (GaVV-1)); test: SEC-SAXS
[2] = biological target: Gaboon viper virus 1 (GaVV-1) phosphoprotein oligomerisation domain (POD), residues 67 to 178 (Gaboon viper virus 1 (GaVV-1)); test: crystal structure
[3] = biological target: Munia bornavirus 1 (MuBV-1) phosphoprotein oligomerisation domain (POD), residues 65 to 172 (munia bornavirus 1 (MuBV-1)); test: SEC-SAXS
[4] = biological target: Munia bornavirus 1 (MuBV-1) phosphoprotein oligomerisation domain (POD), residues 65 to 172 (munia bornavirus 1 (MuBV-1)); test: crystal structure

| Substance | stoichiometry N [1] | stoichiometry N [2] | stoichiometry N [3] | stoichiometry N [4] |
| --- | --- | --- | --- | --- |
| Gaboon viper virus 1 (GaVV-1) phosphoprotein oligomerisation domain (POD), residues 67 to 178 (domain or fragment) | 4 | 4 | – | – |
| Munia bornavirus 1 (MuBV-1) phosphoprotein oligomerisation domain (POD), residues 65 to 172 (domain or fragment) | – | – | 4 | 4 |
